Biological target: CH67 Fab, critical dipeptide VD changed to MD (human)
Experiment: BLI

Work on “HA A/Solomon Islands/03/2006 globular head (from UniProt A7Y8I1) (domain or fragment)” yielded a Kd of 8.5 µM, a koff of 0.00478 s⁻¹ and a kon of 56200 M⁻¹ s⁻¹.

Reference: paper PMC4441819
